Test results reported in patent US20020142976A1, “Materials and methods for modulating differentiation” (ICOS Corporation, priority 1998, published 2002).

Target: T1, ATR (Mus musculus, UniProt Q9JKK8)
T1 construct: from tissue; host or cells: mouse testes extract
Experiment: MyoD phosphorylation (ATR kinase) assay with MyoD-derived peptide substrates
Type: biochemical
Conditions: in vitro kinase assay, 32P-γATP, room temperature 40 minutes
Procedure: ATR was captured on a 96 well plate previously coated first with goat anti-mouse antibodies (Pierce) and secondly with anti-ATR antibody 224C. A hybridoma which secretes antibody 224C was deposited with the American Type Culture Collection (ATCC), 12301 Parklawn Drive, Rockville, Md. 20852 on Nov. 7, 1996 and assigned ATCC Accession Nos. HB 12233. The 224C antibody was added to the plate at a concentration of […] in BT blocking buffer and incubated for at least 30 hours at 4° C. The wells were washed with TBS containing 0.05% Tween® 20 and mouse testes extract (prepared as described in Example 6 of WO 97/18323 published May 22, 1997 from International Application No. PCT/US96/19337, incorporated herein by reference) was added. […]
The supernatant, containing the ^32P-labeled peptide was transferred to P81 phosphocellulose paper, the paper was washed three times with 100 mM phosphoric acid (to remove unincorporated label) and once with ethanol, and Cerenkov radiation (in counts per minute, cpm) was counted in a scintillation counter.
MyoD is a 319 amino acid transcription factor that is often phosphorylated in cells. As described in Example 6 (of WO 97/18323), it has been determined that ATR phosphorylates MyoD in in vitro kinase assays and the target serine residue in myoD has been identified using a MyoD deletion peptide, B-HLH containing amino acids 102 through 165. […]

T1 sequence (Q9JKK8 whole entry): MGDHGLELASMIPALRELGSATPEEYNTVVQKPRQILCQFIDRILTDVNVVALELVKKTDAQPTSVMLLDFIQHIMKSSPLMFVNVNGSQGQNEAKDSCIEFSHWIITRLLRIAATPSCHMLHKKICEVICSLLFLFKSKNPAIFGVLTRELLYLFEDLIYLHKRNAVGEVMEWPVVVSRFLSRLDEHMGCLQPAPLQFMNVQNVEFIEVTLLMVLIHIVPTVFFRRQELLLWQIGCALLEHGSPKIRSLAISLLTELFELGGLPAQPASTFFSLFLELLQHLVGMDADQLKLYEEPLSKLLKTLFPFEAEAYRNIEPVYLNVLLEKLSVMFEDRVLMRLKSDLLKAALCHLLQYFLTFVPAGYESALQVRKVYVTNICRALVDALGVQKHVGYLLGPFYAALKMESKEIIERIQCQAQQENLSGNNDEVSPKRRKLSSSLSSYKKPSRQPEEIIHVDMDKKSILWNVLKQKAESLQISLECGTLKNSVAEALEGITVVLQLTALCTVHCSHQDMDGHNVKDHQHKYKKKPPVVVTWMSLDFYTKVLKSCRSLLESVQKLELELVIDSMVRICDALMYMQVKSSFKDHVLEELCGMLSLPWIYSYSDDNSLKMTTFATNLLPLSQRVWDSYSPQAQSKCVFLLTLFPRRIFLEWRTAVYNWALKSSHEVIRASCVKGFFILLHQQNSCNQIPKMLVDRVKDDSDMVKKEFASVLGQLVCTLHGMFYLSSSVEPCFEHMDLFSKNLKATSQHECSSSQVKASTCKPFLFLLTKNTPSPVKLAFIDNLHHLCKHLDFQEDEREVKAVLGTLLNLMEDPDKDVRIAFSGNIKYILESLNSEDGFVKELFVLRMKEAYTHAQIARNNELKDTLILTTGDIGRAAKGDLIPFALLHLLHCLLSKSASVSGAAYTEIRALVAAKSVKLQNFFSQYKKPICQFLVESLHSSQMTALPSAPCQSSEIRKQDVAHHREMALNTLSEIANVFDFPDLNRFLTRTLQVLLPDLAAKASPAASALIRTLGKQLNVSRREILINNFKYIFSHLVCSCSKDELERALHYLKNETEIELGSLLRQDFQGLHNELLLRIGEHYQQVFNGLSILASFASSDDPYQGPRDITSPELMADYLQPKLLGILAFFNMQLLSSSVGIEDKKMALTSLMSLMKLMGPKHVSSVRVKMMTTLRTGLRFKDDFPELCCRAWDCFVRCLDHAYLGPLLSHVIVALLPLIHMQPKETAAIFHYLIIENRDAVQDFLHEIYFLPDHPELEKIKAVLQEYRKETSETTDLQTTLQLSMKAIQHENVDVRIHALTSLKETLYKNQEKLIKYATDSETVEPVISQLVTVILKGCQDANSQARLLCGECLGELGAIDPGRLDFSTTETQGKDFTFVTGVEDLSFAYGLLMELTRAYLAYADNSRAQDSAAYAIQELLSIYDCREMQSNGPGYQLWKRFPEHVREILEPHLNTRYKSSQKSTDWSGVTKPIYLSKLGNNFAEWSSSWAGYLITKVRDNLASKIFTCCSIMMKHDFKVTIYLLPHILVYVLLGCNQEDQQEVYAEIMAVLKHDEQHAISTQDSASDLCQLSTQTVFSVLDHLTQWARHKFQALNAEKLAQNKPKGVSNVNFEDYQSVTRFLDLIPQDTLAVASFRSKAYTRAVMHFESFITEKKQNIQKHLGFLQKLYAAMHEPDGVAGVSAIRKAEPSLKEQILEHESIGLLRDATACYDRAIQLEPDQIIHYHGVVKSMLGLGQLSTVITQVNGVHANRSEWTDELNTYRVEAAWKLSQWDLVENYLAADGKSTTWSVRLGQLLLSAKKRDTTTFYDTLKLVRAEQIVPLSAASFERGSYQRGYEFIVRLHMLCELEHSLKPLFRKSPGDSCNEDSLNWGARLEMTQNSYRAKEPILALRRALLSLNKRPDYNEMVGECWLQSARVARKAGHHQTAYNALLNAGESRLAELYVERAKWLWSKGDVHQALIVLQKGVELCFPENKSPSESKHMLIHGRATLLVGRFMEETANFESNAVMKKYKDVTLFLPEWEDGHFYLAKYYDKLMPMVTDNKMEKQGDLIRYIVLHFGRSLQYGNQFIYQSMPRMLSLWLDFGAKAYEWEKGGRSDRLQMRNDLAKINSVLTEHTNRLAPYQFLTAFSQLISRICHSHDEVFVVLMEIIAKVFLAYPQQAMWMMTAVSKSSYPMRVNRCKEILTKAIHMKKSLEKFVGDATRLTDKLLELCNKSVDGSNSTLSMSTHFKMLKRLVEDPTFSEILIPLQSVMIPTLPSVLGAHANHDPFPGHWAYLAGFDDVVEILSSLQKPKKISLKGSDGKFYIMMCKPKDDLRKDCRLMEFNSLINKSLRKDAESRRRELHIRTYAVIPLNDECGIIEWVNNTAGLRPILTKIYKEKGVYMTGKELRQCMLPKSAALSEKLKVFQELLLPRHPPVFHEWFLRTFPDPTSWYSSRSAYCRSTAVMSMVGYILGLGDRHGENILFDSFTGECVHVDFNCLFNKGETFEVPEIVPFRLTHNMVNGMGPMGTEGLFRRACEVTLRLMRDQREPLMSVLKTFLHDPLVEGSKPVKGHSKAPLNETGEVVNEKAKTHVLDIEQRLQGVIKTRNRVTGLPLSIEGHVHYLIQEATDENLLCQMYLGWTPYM
T1 sequence (Q8BMG1 whole entry partner): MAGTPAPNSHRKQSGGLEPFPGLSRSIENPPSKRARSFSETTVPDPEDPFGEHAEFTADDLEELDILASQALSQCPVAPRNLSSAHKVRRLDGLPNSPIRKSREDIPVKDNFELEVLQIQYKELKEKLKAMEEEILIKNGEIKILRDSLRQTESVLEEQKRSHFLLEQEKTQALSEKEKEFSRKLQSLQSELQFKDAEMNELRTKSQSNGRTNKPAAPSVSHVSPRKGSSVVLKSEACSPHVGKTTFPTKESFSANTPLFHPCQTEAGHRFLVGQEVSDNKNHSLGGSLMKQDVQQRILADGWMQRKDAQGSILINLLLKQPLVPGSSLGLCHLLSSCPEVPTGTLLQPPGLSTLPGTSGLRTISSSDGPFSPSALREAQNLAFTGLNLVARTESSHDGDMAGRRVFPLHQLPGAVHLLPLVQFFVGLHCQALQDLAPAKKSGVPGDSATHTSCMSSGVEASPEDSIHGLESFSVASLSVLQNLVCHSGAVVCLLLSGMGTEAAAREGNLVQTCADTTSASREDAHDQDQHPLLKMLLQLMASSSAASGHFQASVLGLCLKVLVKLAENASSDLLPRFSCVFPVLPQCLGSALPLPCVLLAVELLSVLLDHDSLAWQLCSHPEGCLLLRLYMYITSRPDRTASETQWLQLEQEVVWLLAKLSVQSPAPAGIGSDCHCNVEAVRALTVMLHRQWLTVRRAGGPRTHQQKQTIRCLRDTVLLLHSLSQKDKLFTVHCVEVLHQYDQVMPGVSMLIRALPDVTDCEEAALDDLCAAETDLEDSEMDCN

NH2-Leu-Lys-Arg-Cys-Thr-Ser-Ser-Asn-Pro-Asn-Gln-Arg-Leu-Pro-Lys-COOH (H-LKRCTSSNPNQRLPK-OH) [IDH22]
phosphorylation of peptide by ATR: phosphorylated
